In paper PMC3541284 (Autophagy, 2012):

Biological target: 6xHis-GABARAP (UniProt O95166 1-117)
Assay: pull-down

Sequence of 6xHis-GABARAP (O95166 whole entry): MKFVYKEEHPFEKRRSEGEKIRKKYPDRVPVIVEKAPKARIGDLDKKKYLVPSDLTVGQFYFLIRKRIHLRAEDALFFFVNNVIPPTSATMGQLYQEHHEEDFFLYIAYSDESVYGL

B1: GST-MAPK15_300–373_WT (domain or fragment, UniProt Q8TD08 300-373, looked up)
chain: QHPYVQRFHCPSDEWAREADVRPRAHEGVQLSVPEYRSRVYQMILECGGSSGTSREKGPEGVSPSQAHLHKPRA
B1: binds.
